From the RNAGym collection of RNA variant scans (doi:10.7554/elife.80360)

B1: HDV Ribozyme (parent)
chain: GGCCGGCAUGGUCCCAGCCUCCUCGCUGGCGCCGGCUGGGCAACAUUCCGAGGGGACCGUCCCCUCGGUAAUGGCGAAUGGGACCCA

Variants of: B1
Assay: self-cleavage, relative activity (ratio to wild type); higher = more cleavage; co-transcriptional

| Variant | self-cleavage |
| --- | --- |
| GGCCGGCAUGGUCCCAGCCUCCUCGAUGGCUCCGGCUGGGCAACAUUCCGAGGGGACCGUCCCCUCGGUAAUGGCGAAUGGGACCCA [C26A G31U] | 0.425 |
| GGCCGGCAUGGUCCCAGCCUCCUCGAUGGCGCCGGCUGGGCAACAUUUCGAGGGGACCGUCCCCUCGGUAAUGGCGAAUGGGACCCA [C26A C48U] | 0.941 |
| GGCCGGCAUGGUCCCAGCCUCCUCGAUGGCGCCGGCUGGGCAACAUUCCGAGGGGACCGUCCCCUCGGUAAUGGCGAAUGGGAACCA [C26A C84A] | 0.787 |
| GGCCGGCAUGGUCCCAGCCUCCUCGAUGGCGCCGGCUGGGCAACAUUCCGAGGGGACCGUCCCCUCGGUAAUGGCGAAUGGGAGCCA [C26A C84G] | 0.95 |
| GGCCGGCAUGGUCCCAGCCUCCUCGAUGGCGCCGGCUGGGCAACAUUCCGAGGGGACCGUCCCCUCGGUAAUGGCGAAUGGGAUCCA [C26A C84U] | 0.854 |
| GGCCGGCAUGGUCCCAGCCUCCUCGAUGGCGCCGGCUGGGCAAAAUUCCGAGGGGACCGUCCCCUCGGUAAUGGCGAAUGGGACCCA [C26A C44A] | 0.914 |
| GGCCGGCAUGGUCCCAGCCUCCUCGAUGGCGCCGGCUGGGCAAUAUUCCGAGGGGACCGUCCCCUCGGUAAUGGCGAAUGGGACCCA [C26A C44U] | 0.95 |
| GGCCGGCAUGGUCCCAGCCUCCUCGAUGGCGCCGGCUGGGCAACAUUCCGAGAGGACCGUCCCCUCGGUAAUGGCGAAUGGGACCCA [C26A G53A] | 0.845 |
| GGCCGGCAUGGUCCCAGCCUCCUCGAUGGCGCCGGCUGGGCAACAUUCCCAGGGGACCGUCCCCUCGGUAAUGGCGAAUGGGACCCA [C26A G50C] | 1.16 |
| GGCCGGCAUGGUCCCAGCCUCCUCGAUGGCGCCGGCUGGGCAACAUUCCUAGGGGACCGUCCCCUCGGUAAUGGCGAAUGGGACCCA [C26A G50U] | 0.958 |
| GGCCGGCAUGGUCCCAGCCUCCUCGAUGGCGCCGGCUGGGCAACAUUCCGAGGGGAACGUCCCCUCGGUAAUGGCGAAUGGGACCCA [C26A C57A] | 1.02 |
| GGCCGGCAUGGUCCCAGCCUCCUCGAUGGCGCCGGCUGGGCAACAUUCCGAGGGGAGCGUCCCCUCGGUAAUGGCGAAUGGGACCCA [C26A C57G] | 1.1 |
| GGCCGGCAUGGUCCCAGCCUCCUCGAUGGCGCCGGCUGGGCAACAUUCCGAGGGGACCGUCCCCUCGGUAAUGGCGAAUGGGACGCA [C26A C85G] | 1.15 |
| GGCCGGCAUGGUCCCAGCCUCCUCGAUGGCGCCGGCUGGGCAACAUUCCGAGGGGACCGUCCCCUCGGUAAUGGCGAAUGGGACUCA [C26A C85U] | 0.942 |
| GGCCGGCAUGGUCCCAGCCUCCUCGAUGGCGCCGGCUGGGCAACAUUCCGAGGGGACCGUCCCCUCGGUAAUGGCGAAUGGGACACA [C26A C85A] | 0.997 |
| GGCCGGCAUGGUCCCAGCCUCCUCGAUGGCGCCGGCUGGGCAACAUUCCGAGGGGACCGUCCCAUCGGUAAUGGCGAAUGGGACCCA [C26A C64A] | 1.02 |

| Variant | self-cleavage |
| --- | --- |
| GGCCGGCAUGGUCCCAGCCUCCUCGAUGGCGCCGGCUGGGCAACAUUCCGAGGGGACCGUCCCUUCGGUAAUGGCGAAUGGGACCCA [C26A C64U] | 1.13 |
| GGCCGGCAUGGUCCCAGCCUCCUCGAUGGCGCCGGCUGGGCCACAUUCCGAGGGGACCGUCCCCUCGGUAAUGGCGAAUGGGACCCA [C26A A42C] | 0.227 |
| GGCCGGCAUGGUCCCAGCCUCCUCGAUGGCGCCGGCUGGGCGACAUUCCGAGGGGACCGUCCCCUCGGUAAUGGCGAAUGGGACCCA [C26A A42G] | 0.665 |
| GGCCGGCAUGGUCCCAGCCUCCUCGAUGGCGCGGGCUGGGCAACAUUCCGAGGGGACCGUCCCCUCGGUAAUGGCGAAUGGGACCCA [C26A C33G] | 0.317 |
| GGCCGGCAUGGUCCCAGCCUCCUCGAUGGCGCUGGCUGGGCAACAUUCCGAGGGGACCGUCCCCUCGGUAAUGGCGAAUGGGACCCA [C26A C33U] | 0.796 |
| GGCCGGCAUGGUCCCAGCCUCCUCGAUGGCGCAGGCUGGGCAACAUUCCGAGGGGACCGUCCCCUCGGUAAUGGCGAAUGGGACCCA [C26A C33A] | 0.161 |
| GGCCGGCAUGGUCCCAGCCUCCUCGAUGGCGCCCGCUGGGCAACAUUCCGAGGGGACCGUCCCCUCGGUAAUGGCGAAUGGGACCCA [C26A G34C] | 0.111 |
| GGCCGGCAUGGUCCCAGCCUCCUCGAUGGCGCCUGCUGGGCAACAUUCCGAGGGGACCGUCCCCUCGGUAAUGGCGAAUGGGACCCA [C26A G34U] | 0.683 |
| GGCCGGCAUGGUCCCAGCCUCCUCGAUGGCGCCGGCUGGGCAACAUUCCGAGGGGACCGUCCCCUCGGUAAUGGCGAAUGGGCCCCA [C26A A83C] | 0.752 |
| GGCCGGCAUGGUCCCAGCCUCCUCGAUGGCGCCGGCUGGGCAACAUUCCGAGGGGACCGUCCCCUCGGUAAUGGCGAAUGGGUCCCA [C26A A83U] | 0.796 |
| GGCCGGCAUGGUCCCAGCCUCCUCGAUGGCGCCGGCUGGGCAACAUUCCGAGGGGACCGUCCCCUCGGUAAUGGCGAAUGGGGCCCA [C26A A83G] | 0.729 |
| GGCCGGCAUGGUCCCAGCCUCCUCGAUGCCGCCGGCUGGGCAACAUUCCGAGGGGACCGUCCCCUCGGUAAUGGCGAAUGGGACCCA [C26A G29C] | 0.104 |
| GGCCGGCAUGGUCCCAGCCUCCUCGAUGGCGCCGGCUGGGCAACAUUCCGAGGGGACCGUCCCCUCGGUAAUGGAGAAUGGGACCCA [C26A C75A] | 0.0415 |
| GGCCGGCAUGGUCCCAGCCUCCUCGAUGGCGCCGGCUGGGCAACAUUCCGAGGGGCCCGUCCCCUCGGUAAUGGCGAAUGGGACCCA [C26A A56C] | 1.06 |
| GGCCGGCAUGGUCCCAGCCUCCUCGAUGGCGCCGGCUGGGCAACAUUCCGAGGGGGCCGUCCCCUCGGUAAUGGCGAAUGGGACCCA [C26A A56G] | 0.957 |
| GGCCGGCAUGGUCCCAGCCUCCUCGAUGGCGCCGGCUCGGCAACAUUCCGAGGGGACCGUCCCCUCGGUAAUGGCGAAUGGGACCCA [C26A G38C] | 0.122 |
